Measurements taken from patent US20090311686A1 (GIVAUDAN, published 2009).
No end group written: not given here.

How the values were obtained:
Experiment in all cases: cell-based or functional assay
[1] = biological target: T1, human calcium-sensing receptor (hCaSR), full length (human, UniProt Q8TE23 20-839)
T1 sequence: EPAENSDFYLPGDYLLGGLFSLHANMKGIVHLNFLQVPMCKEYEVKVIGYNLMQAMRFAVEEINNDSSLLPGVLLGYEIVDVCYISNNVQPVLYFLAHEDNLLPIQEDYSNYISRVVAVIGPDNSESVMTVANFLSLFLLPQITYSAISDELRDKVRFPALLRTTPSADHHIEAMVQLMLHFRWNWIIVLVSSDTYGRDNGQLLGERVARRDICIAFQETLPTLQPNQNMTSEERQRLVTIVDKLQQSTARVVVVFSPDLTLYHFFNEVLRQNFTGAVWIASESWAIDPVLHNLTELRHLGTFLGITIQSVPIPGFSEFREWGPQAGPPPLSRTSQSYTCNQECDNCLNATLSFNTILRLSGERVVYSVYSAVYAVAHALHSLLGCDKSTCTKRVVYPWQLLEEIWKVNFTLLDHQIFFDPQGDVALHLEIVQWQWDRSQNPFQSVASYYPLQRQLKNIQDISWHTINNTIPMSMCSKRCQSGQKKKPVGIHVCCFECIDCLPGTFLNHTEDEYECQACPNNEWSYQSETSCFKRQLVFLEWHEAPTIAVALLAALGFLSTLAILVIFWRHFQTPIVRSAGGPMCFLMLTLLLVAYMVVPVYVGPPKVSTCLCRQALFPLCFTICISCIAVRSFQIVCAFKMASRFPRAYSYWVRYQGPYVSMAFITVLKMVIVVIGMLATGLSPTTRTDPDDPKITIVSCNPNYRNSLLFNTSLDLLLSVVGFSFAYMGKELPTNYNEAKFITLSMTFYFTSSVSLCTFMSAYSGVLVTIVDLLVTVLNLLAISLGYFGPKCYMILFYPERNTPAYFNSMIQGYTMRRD

[2] = biological target: human T1R2/T1R3 sweet receptor heterodimer (wildtype) (human, UniProt Q8TE23 20-839; Q7RTX0 21-852)
[3] = biological target: T2, CSR:T1R2/CSR:T1R3 chimeric heterodimer (human)
T2 chain 1: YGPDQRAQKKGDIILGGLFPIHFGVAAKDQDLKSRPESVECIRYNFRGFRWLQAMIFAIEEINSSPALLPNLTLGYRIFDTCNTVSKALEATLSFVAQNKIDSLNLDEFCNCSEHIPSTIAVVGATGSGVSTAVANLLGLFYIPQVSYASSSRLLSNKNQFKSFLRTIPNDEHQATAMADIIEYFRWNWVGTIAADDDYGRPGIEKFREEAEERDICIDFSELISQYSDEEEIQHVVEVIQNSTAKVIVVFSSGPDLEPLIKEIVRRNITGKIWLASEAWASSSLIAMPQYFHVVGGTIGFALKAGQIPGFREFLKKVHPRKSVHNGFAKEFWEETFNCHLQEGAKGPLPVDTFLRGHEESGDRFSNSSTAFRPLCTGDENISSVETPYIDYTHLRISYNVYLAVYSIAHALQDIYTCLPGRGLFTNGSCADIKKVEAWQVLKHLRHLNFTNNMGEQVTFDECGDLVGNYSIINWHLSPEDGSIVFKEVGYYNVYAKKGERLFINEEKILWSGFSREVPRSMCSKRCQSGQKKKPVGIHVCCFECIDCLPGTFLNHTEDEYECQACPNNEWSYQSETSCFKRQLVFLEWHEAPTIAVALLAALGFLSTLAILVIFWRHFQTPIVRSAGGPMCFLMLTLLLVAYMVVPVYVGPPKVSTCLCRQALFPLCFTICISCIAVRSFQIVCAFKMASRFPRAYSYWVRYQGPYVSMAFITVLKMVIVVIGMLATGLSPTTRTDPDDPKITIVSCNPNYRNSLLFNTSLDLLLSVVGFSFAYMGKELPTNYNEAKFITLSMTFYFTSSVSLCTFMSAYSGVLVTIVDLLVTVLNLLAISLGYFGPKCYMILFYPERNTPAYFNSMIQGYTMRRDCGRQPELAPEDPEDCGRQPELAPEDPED
T2 chain 2: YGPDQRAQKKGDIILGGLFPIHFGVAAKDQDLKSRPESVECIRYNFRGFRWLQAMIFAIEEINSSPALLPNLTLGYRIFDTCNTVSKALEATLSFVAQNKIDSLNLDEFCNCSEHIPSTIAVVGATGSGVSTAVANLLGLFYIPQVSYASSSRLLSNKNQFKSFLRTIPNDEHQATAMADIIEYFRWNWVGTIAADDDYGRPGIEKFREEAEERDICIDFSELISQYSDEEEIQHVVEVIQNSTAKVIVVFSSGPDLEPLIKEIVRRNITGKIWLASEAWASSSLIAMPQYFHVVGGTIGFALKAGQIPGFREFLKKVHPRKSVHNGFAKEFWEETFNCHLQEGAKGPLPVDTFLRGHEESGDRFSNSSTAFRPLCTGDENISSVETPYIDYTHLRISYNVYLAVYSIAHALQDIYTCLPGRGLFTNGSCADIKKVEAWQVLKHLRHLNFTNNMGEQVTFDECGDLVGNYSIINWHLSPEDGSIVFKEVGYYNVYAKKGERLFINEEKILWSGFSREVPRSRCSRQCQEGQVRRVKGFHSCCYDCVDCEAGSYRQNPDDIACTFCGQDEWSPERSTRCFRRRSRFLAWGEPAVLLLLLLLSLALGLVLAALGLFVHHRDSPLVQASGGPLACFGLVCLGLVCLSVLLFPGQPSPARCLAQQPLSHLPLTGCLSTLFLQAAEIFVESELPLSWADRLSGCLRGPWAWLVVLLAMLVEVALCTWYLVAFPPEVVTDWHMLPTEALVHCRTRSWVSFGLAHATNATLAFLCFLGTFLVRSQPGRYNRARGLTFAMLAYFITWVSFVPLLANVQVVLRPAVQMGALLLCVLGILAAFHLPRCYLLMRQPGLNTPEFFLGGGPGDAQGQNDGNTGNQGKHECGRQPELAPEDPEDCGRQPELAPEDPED

human T1R2/T1R3 sweet receptor heterodimer (wildtype), sequence (Q7RTX0 21-852 C757R limits assumed, one chain of several): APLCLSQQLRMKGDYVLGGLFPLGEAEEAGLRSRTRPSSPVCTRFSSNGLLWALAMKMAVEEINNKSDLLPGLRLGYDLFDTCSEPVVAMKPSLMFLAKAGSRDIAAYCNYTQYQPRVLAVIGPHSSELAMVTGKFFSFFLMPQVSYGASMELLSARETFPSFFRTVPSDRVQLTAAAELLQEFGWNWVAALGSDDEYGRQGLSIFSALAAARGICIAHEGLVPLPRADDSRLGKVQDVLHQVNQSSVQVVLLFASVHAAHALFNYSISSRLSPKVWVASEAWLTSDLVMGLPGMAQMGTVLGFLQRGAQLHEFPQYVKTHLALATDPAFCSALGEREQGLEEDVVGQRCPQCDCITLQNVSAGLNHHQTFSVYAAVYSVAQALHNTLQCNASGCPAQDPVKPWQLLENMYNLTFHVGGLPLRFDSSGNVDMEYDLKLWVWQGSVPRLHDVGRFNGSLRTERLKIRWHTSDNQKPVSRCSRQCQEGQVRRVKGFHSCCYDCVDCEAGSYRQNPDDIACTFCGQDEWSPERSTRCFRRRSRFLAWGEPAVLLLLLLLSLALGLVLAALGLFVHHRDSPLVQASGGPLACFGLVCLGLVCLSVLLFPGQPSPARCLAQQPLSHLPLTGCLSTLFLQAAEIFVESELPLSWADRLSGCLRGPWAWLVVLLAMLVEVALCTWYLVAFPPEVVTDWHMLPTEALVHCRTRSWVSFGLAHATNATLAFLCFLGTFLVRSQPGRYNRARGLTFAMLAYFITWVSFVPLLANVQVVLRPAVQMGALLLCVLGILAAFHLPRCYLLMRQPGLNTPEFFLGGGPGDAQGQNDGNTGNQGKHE

net increase in fluorescence over baseline (Fluo-4 calcium assay, AVG of six replicates), aspartame 0.85 mM [1]: 41 RFU
net increase in fluorescence over baseline (Fluo-4 calcium assay, AVG of six replicates), aspartame 0.85 mM [2]: 531 RFU
net increase in fluorescence over baseline (Fluo-4 calcium assay, AVG of six replicates), aspartame 0.85 mM [3]: 72 RFU
B1: Aspartame (aspartyl-phenylalanine-1-methyl ester, a dipeptide) (peptide)
peptide: Asp-Phe-OMe
